From the RNAGym collection of RNA variant scans (doi:10.7554/elife.80360)

B1: HDV Ribozyme (parent)
chain: GGCCGGCAUGGUCCCAGCCUCCUCGCUGGCGCCGGCUGGGCAACAUUCCGAGGGGACCGUCCCCUCGGUAAUGGCGAAUGGGACCCA

Variants of: B1
Experiment: self-cleavage, relative activity (ratio to wild type); higher = more cleavage; co-transcriptional

Row | Variant | self-cleavage
1 | C41A A45G | 0.942
2 | U37G G38C | 0.192
3 | G10U G82A | 0.241
4 | C62G G67C | 0.147
5 | G50A G82A | 0.614
6 | U46C A77U | 0.104
7 | G1A C48G | 0.199
8 | G31U G81C | 0.208
9 | G2C G54U | 0.0723
10 | G34A U69G | 0.306
11 | U9C C21U | 0.214
12 | U9A C33G | 0.0692
13 | G25A C26U | 0.339
14 | G1U C26A | 0.288
15 | A71U G76C | 0.914
16 | C62A G80A | 0.282
17 | G52C G74C | 0.17
18 | G55C A83G | 0.767
19 | U9G G81C | 0.443
20 | C33G U65A | 0.156
21 | C21A G73C | 0.0678
22 | U46C C49U | 0.73
23 | C24G G29C | 0
24 | G1C C19A | 0.201

Row | Variant | self-cleavage
25 | U20C G81C | 0
26 | U12C G53U | 0.427
27 | A8G C58A | 1.07
28 | G67A G68A | 0.946
29 | U72C C75A | 0.256
30 | C4A G73U | 0
31 | C64U C86G | 0.972
32 | C4G G55U | 0.376
33 | A16G G76A | 1.07
34 | C18G G76A | 0.111
35 | U20A A71C | 0.0554
36 | G11C G39A | 0.264
37 | A56C U69G | 0.987
38 | G29U G59C | 0.104
39 | U20C C57U | 0.306
40 | G11A C13A | 0.0791
41 | G74U C84A | 0.475
42 | C48U C66G | 0.658
43 | A8G G81A | 0.0875
44 | C19U U37A | 0.0936
45 | G39U U47A | 0.554
46 | U60A U69A | 0.793
47 | A42U U60A | 0.665
48 | A45U C75A | 0.277

Row | Variant | self-cleavage
49 | U12G C86G | 0.59
50 | C30G A78C | 0.0744
51 | U12A G38U | 0.0277
52 | C41U A42C | 0.519
53 | C13G C75G | 0.128
54 | A16U G39C | 0.185
55 | G38C A70U | 0.185
56 | A8U G28C | 0.166
57 | G10A C61G | 0.844
58 | G34C C58G | 0.287
59 | G10A G35C | 0.1
60 | U20C U23C | 0.0723
61 | C30G G31U | 0.126
62 | U46C A87C | 0.91
63 | C3G C48G | 0.695
64 | C26G C58A | 1.06
65 | U37G C66A | 0.199
66 | A45U C58G | 0.712
67 | G53C U72C | 1.02
68 | C26U G74C | 0.519
69 | U27A A45U | 0.458
70 | C19U G38U | 0
71 | G76C A87C | 1.08
72 | U12C C58G | 0.208

Row | Variant | self-cleavage
73 | C66U G82C | 0.268
74 | G29A C57A | 0.282
75 | C26G G80A | 0.789
76 | A42G C84G | 0.314
77 | C21G C30U | 0.0308
78 | G2C C84A | 0.0462
79 | C4A G28A | 0.0489
80 | G40C C49U | 0.125
81 | C61U U72C | 0.356
82 | G54C A87U | 0.901
83 | A77U C85A | 0.514
84 | U20C G38A | 0
85 | G54U A71C | 0.654
86 | G2C U47C | 0.102
87 | U46C G82C | 0.243
88 | C4A U9C | 0.268
89 | C19A C86G | 0.0548
90 | C15A G76U | 0.919
91 | U9C U46A | 1.06
92 | A42G G74U | 0.0791
93 | G67A C75A | 0.185
94 | G25U U47A | 0.161
95 | C61U C66A | 0.722
96 | G34U U46A | 0.0639

Row | Variant | self-cleavage
97 | C32G G67A | 0.16
98 | C21U C26U | 0.646
99 | A51U C86G | 1.21
100 | G68A G81A | 0.389
101 | C3A G53C | 0.635
102 | U9G U46A | 0.312
103 | G53C U65G | 0.688
104 | C4G G40C | 0.128
105 | G5U C75G | 0.246
106 | C7U G31C | 0.727
107 | G31A A78C | 0.169
108 | G1C G29C | 0.0665
109 | G80C A87C | 0.237
110 | C7G C62U | 0.302
111 | C41G U79G | 0.302
112 | C64A G74U | 0.327
113 | C15A C18G | 0.111
114 | C4A G25C | 0.181
115 | G59U G67C | 0.963
116 | C30G G35U | 0.138
117 | G25A G35C | 0.0627
118 | C24U G55U | 0.698
119 | C62G G82A | 0.267
120 | G6A C36A | 0

Row | Variant | self-cleavage
121 | A45G G67C | 0.54
122 | C3G A83C | 0.191
123 | U20A G67C | 0
124 | G5A A42C | 0.135
125 | G73A U79G | 0.248
126 | A43U A56C | 0.374
127 | C61U G76C | 1.05
128 | G40U G55C | 0.937
129 | C41A G53A | 0.967
130 | G6C U23C | 0.0639
131 | C32A C86A | 0.356
132 | U20G C48A | 0.0723
133 | C7G G11U | 0.104
134 | A42U C64A | 0.639
135 | G10U A56G | 0.689
136 | C14G A70C | 0.185
137 | G2U G67C | 0.0678
138 | C13G G74U | 0.0386
139 | C14A A87G | 0.659
140 | C32U A78C | 0.177
141 | G11A U27G | 0.359
142 | U12C G74C | 0
143 | G17C C75G | 0.111
144 | G5A C58U | 0.252

Row | Variant | self-cleavage
145 | G50U C61G | 0.67
146 | U37A A56U | 0.332
147 | C18U C75U | 0.134
148 | U23C G53C | 0.927
149 | G39C C75G | 0.0831
150 | C26U C33A | 0.307
151 | U9G C21G | 0
152 | C19G A70U | 0.102
153 | A16G C63U | 0.997
154 | A16C G25U | 0
155 | C13A G25A | 0.0277
156 | C18G G81A | 0.277
157 | A8C G81C | 0.166
158 | A51C C62U | 1.08
159 | C36G A42C | 0.0811
160 | G31A G50A | 0.626
161 | G2A G35U | 0.0602
162 | A45U C63A | 0.784
163 | G29U G68C | 0.106
164 | A8U U47A | 0.767
165 | C58A U72G | 1.09
166 | C13A C64U | 0.242
167 | C18U C84G | 0.308
